Laboratory results published in patent US20040208877A1.

Key:
[1] = target: PSGL-1 (P-Selectin Glycoprotein Ligand-1) (human) (UniProt Q14242); test: FACS, PE-labeled KPL-1 on ML2 cells
[2] = target: PSGL-1 (P-Selectin Glycoprotein Ligand-1) (human) (UniProt Q14242); test: FACS competition on ML2 cells, 200 ng KPL-1, competitor IgG Y1-PE

UniProt Q14242, sequence (Q14242 42-412): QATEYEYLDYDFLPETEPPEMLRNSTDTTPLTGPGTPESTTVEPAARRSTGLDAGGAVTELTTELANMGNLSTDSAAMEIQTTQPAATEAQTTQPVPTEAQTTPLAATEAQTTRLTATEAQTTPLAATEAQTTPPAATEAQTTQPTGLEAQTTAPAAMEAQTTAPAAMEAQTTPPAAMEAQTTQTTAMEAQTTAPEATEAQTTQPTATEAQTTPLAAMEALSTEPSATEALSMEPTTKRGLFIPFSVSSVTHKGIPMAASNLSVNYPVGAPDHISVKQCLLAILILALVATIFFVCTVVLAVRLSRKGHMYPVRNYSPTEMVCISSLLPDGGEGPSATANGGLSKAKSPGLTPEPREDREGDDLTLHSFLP

## KPL-1 (commercially available murine monoclonal antibody against PSGL1)
[1]
  Median (Geo mean): 700 geo mean
[2]
  Median (Geo mean) of IgG Y1-PE binding: 2 geo mean
  Percent Inhibition: 100%
